Test results reported in paper PMC5989136.

Biological target: H4 conjugated to SUMO (UniProt P62799)
Test: refolding of the histone complex, analysed by SDS-PAGE

stoichiometry N: 1 H3K23ac:H4
Substance: H3K23ac (H3 with acetylation at K23) (from UniProt P84233 1-136) (natural protein)
